Reference: the nanobody polyreactivity screen of Harvey et al. (2022)

Assay: yeast display, Sf9 membrane polyspecificity reagent, FACS + sequencing; frameworks hold sequencing errors
Procedure, shortened: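 In a synthetic yeast display library (Saccharomyces cerevisiae BJ5465), nanobody expression was induced with galactose for 36–48 hours. FACS gates were set low and high (top ~1%) using anti-HA fluorescence for expression and streptavidin fluorescence for binding of the Sf9 membrane reagent. Each polyreactivity label is drawn from the gate of origin.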

With “QVQLVESGGGLVQAGGSLRLSCAASGSISAGNAMGWYRQAPGKERDLVAAISGSGGSTYYADSVKGRFTISRYNAKNTVYLQMNRLKPEDTAVYYCAARGGYRLRYIPYVRYDYWGQGTQVTVSS” as the sequence, how does the “polyreactivity (PSR sort gate)” value read?
The value was “high polyreactivity”.

Which “polyreactivity (PSR sort gate)” value does the source give for “QVQLVESGGGLVQAGGSLRLSCAASGRIFSAYAMGWYRPAPGKERELVAAISWSGGSTYYADSVKGRFTISRDNAKNTVYLQMNSLKPEDTAVYYCAADYFYTSWYQHDYWGQGTQVTVSS” here?
Its value is “low polyreactivity”.

Which “polyreactivity (PSR sort gate)” value does the source give for “QVQLVESGGGLVQAGASLRLSCAASGRIYIYAMGWYRQAPGKEREMVAAITGGASTNYADSVKGRFTISRDNAKNTVYLQLISLKPEDTAVYYCNAVAYVYGSFRRRPMGYWGQGTQVTVSS” here?
Its value is “high polyreactivity”.

For “HVQLVESGGGLVQAGGSLRLSCAASGIIFRYKALGWYREAPGKERELVAAISVSGGSTYYADSVKGRFTISRDNAKNTVDLQMNSLKPEDTAVDYCAALLYRYGVHQAEHDYWGQGTQVTVSS”, which “polyreactivity (PSR sort gate)” value is on record?
The value was “high polyreactivity”.

With “QVQLVESGGGLVQAGGSLRLSCAASGSTFAWYAMGWYRQAPGKERELVAAISSGGRTYYADSVKGRFTISRDNAKNTVYLQMNSLKPEDTAVYYCNAVDWAYGMDYWGQGTQVTVSS” as the sequence, how does the “polyreactivity (PSR sort gate)” value read?
Its value is “low polyreactivity”.

With “QVQLVESGGGLVQAGGSLRLSCAASGIIFSSYAMGWYRQAPGKERELVAAISWSGGSTYYADSVKGRFTISRDNAKNTVYLQMNSLKPEDTAVYYCAAYPVWYYEYDYWGQGTQVTVSS” as the sequence, how does the “polyreactivity (PSR sort gate)” value read?
Its value is “low polyreactivity”.

Which “polyreactivity (PSR sort gate)” value does the source give for “QVQLVESGGGLVQAGGSLRLSSAASGGTFWIYAMGWYRQAPGKERELVSGITTSGATTYYADSVKGRFTISRDNAKNTVYLQMNRLKPEDTAVYYCAADEYYRYEYWGQGTQVTESS” here?
Its value is “low polyreactivity”.

With “QVQLVESGGGLVQAGGSLRLSCAASGSTFTPYTMGWYRQAPGKERELVATITGSDGSTYYADSVKGRFTISRDNAKNTVYLQMNSLKPEDTAVYYCYADETRWTWDPFSYICDDYWGQGTQVTVSS” as the sequence, how does the “polyreactivity (PSR sort gate)” value read?
Its value is “low polyreactivity”.

With “QVQLVESGGGLVQAGGSLRLSCAASGSTFRYYAMGWYRLAPGKERELVAAITASGTSTYYADSVKGRFTISRDNAKNTVYLQMNSLKPEDTAVYYCAARWRYGYYWGQGTQVTVSS” as the sequence, how does the “polyreactivity (PSR sort gate)” value read?
The value was “high polyreactivity”.

With “QVQLVESGGGLVQAGGSLRLSCAASGRIFYTYAMGWYRQAPGKERELVAAISSRTGSTYYADSVKGRFTISRDNAKNTVYLQMNSLKPEDTAVYYCNAYRLRYGYDYWGQGTQVTVSS” as the sequence, how does the “polyreactivity (PSR sort gate)” value read?
Its value is “high polyreactivity”.

With “QVQLGESGGGLVQAGGSLRLSCAASGRTFLKNALGWYRPAPGKERELVAAITSGGSTNYADSVKGRFTISRDNAKNTVYFQMNCLKPEDTAVYYCAAEYTYGSPYDYWGQGTQVTVSS” as the sequence, how does the “polyreactivity (PSR sort gate)” value read?
Its value is “low polyreactivity”.

Which “polyreactivity (PSR sort gate)” value does the source give for “QVQLVESGGALVQAGGSLRLSCAASGSIFGLKDMRWYRPAPGKEREFVAAITWSGGSSTYYADSVKGRFTISRDNAKITVSLQMNSVKTEDTAVYYCAADDRTLPADVDYWGQGTQVTVSS” here?
Its value is “high polyreactivity”.

For “QVQLVESGGGLVQAGGSLRLSCAASGLIFYKYAMGWYRQAPGKERELVASISTGGGSTYYADSVKGRFTISRDNAKNTVYLQMNSLKPEDTAVYYCAARWWSRFRGSHSLYDYWGQGTQVTVSS”, which “polyreactivity (PSR sort gate)” value is on record?
The value was “high polyreactivity”.

For “QVQLVESGGGLVQAGGSLRLSCAASGFTLPANGMGWYRQAPGKERELVAAISFIAGSTYYADSVKGRFTISRDNAKNTVYLQMNSLKPEDTAVYYCATQFPPSTIYYYWGQGTQVTVSS”, which “polyreactivity (PSR sort gate)” value is on record?
The value was “low polyreactivity”.

With “QVQLVESGGGLVQAGGSLRLSCAASGIIFPNYAMGWYRQAPGKERELFAAITWRGGGTYYADSVKGRFTISRDNAKNTVYLQMNSLKPEDTAVYYCAAQKAYPRRYYGYKWEYYYWGQGSQVTVSS” as the sequence, how does the “polyreactivity (PSR sort gate)” value read?
The value was “high polyreactivity”.

For “QVQLVESAGGLVQAGGRLLLSCAASGRIFAKYAMGWYRQAPGKERELVAAIRSTGGGTYYADSVKGRFTISRDNAKNTVYLQMNSLKPEDTAVYYCDARQTYYKYGYWGQGTQVTVSS”, which “polyreactivity (PSR sort gate)” value is on record?
Its value is “high polyreactivity”.

For “QVQLVESGGGLVQAGGSLRLSCAASGSIFDPYAMGWYRQAPRKERELVAAIRWSGTSTYYADSVMGRFTISRDNAKNTVYLQMNSLKPEDTAVYYCAARGSKGFSSPFGYWGQGTQLTVSS”, which “polyreactivity (PSR sort gate)” value is on record?
The value was “high polyreactivity”.

For “QVQLVESGGGLVQAGGSLRLSCAASGRTFLQYGMGWYRQAPGKERELVAAITTSGGDTYYADSVKGRFTISRDNAKNTVYLQMNSQKPEDTAVYYCNAEPRYGTYDYWGQGTQVTVSA”, which “polyreactivity (PSR sort gate)” value is on record?
The value was “low polyreactivity”.

Which “polyreactivity (PSR sort gate)” value does the source give for “QVQLQESGAGLEQAGGSLRMSCAASGYISDIVTMGWYRQAPGKEREFVATIVVGSTTNYADSVKGRFTISRDNANNSVYLQPESGRYRGVLLRGWLLAVGKFTYWGQGTQETVSS” here?
The value was “low polyreactivity”.

With “QDQLVESGGGLVQAGGSLRLSCAASGFTFAENAMGWYRQATGKEGELVAAISGSGGSTYYADSVKGRFTISRDNAKNTVYLQMNSLKPEDTAVYYCAADKPRPQYTDDDYWGQGTQVTVSS” as the sequence, how does the “polyreactivity (PSR sort gate)” value read?
Its value is “high polyreactivity”.

For “QVQLGESGAGLVQAGGSLRLSCAASGRTFYRYAMGWYRQAPGKERELVAAISSSGGRTYYADSVKGRFTISRDNAKNTVYLQMNSLKPEDTAVYYCAKSGYHSLVLWIEDYWGQGTQVTVSS”, which “polyreactivity (PSR sort gate)” value is on record?
The value was “low polyreactivity”.

With “QVQLVESGGGLVQAGGSLRLSCAASGFIFGNYDMEWYRPAPGKERELVAAITNGGGNTYYADSVKGRITISRDNAKNTVYLQMNSLKPEDTAVSYCHPLRYYYWGQGTQVTVSS” as the sequence, how does the “polyreactivity (PSR sort gate)” value read?
The value was “high polyreactivity”.

Which “polyreactivity (PSR sort gate)” value does the source give for “QVQLVESGGGLVQAGGSLRLSCAASGITFGSNAMGWYRQAPGKERELVAAINSGGTTTYADSVKGRFTISRDNAKNTVYLQMNSLKPEDTAVYYCAVSGGASYQFVGSPDTEHDYWGQGTQVTVSS” here?
The value was “low polyreactivity”.

Which “polyreactivity (PSR sort gate)” value does the source give for “QVQLVESGGGLVQAGGSLRLSCAASGRIFKRNAMGWYRQAPGNERELVAAINWSGGSTYYADSVKGRFTISRDTAKNTVYLQMNSLKPEDTAVYYCAALRVQGDYDYWGQGTQVTVSS” here?
Its value is “high polyreactivity”.

With “QVQLVESGGGLVQAGGSLRLSCAASGFIFGGYAMGWSRQAPGKERELVAAISRSGGSTYYADSVKGRFTISRDNAKNTVYLQMNSLKPEDTAVYYCNAVPRRQGFNYWGQGTQVTVSS” as the sequence, how does the “polyreactivity (PSR sort gate)” value read?
Its value is “high polyreactivity”.

For “QVQLVESGGGLVQAGGSLRLSCAASGSIFPYNVMGWYRQAPGKERELVAAITRRGGSTYYADSVKGRFTISRDNAKNTVYLQMNSLKPEDTAVYYCAAVPYPRGKGYDYWGQGTQVTVSS”, which “polyreactivity (PSR sort gate)” value is on record?
The value was “high polyreactivity”.

For “QVQLVESGGGLVQAGGSLRLTCAASGSTFRGNTMGWSRQAPGKERELVAAISWDGGTTYYADSVKGRFTISRDNAKNTVYLQMNCLKPEDTAVYYCAADWTGQEYEYWGQGTQVTVSS”, which “polyreactivity (PSR sort gate)” value is on record?
The value was “low polyreactivity”.

With “QVQLVESGGGLDQAGGSLRLSCAASGLTLAVNAMGCYRQAPGKERELVAAISRRGGSTYYADSVKGRFTISRDNSKNPVYLQMNSLKPEDTAVYYCAAKYNYSEMDSWGQGTQVTVSS” as the sequence, how does the “polyreactivity (PSR sort gate)” value read?
Its value is “high polyreactivity”.

With “QVQLVESGGGLVEAGGSLRLSCAASGFTFRQYAMGWYRQAPGKEWELVAAISSGGSTYYADSVKGRFTISRDNAKNTDYVQMNSLKPEDTAVYYCAATHWAYSRVPYDYWGQGTQVTVSS” as the sequence, how does the “polyreactivity (PSR sort gate)” value read?
Its value is “high polyreactivity”.

For “QVQLVESGGGLVQAGGSLRLSCAASGRIFAFYARGSSRQAPGKERQLVAVISKSGGTTYYADSVKGRFTISRDNAKNTVYLQMNSLKPEDTAVYYCNKRVFYRHGYSYNYWGQGTQVTVSS”, which “polyreactivity (PSR sort gate)” value is on record?
Its value is “high polyreactivity”.

With “QVQLVESGGGLVQAGGSLRLSCAASGITFNLYAMGWYRQAPGKERELVAGITGGGSTYYADSVKGRFTISRDNAKNTVYLQMNSLTPEDTAVYYSTARRLGARYRGYYWGQGTQVTVSS” as the sequence, how does the “polyreactivity (PSR sort gate)” value read?
Its value is “high polyreactivity”.

For “QVQLVESGGGLVQAGVSLRLSCAASGFIFRPYTMGWYRLAPGKERELVAAISRSGDSTYYADSVKGRFTISRDNAKNTVYLQMNSLKPEDTAVYYCAAYYNGRVGPYYYWGQGTQVTVSS”, which “polyreactivity (PSR sort gate)” value is on record?
Its value is “high polyreactivity”.

For “HVQLVESGGGLVQAGGSLRLSCAASGSIFDSYVMGWYRQAPGTERELVAAITYSGGSTYADSVKGRFTISRDNAKNTVYLQMNSLKPEDTAVYYCAAASYFYLYLLEDYWGQGTQVTVSS”, which “polyreactivity (PSR sort gate)” value is on record?
Its value is “low polyreactivity”.

With “QVQLVESGGGLVQAGGSLRLSCAAAGSIFVWYVMGWYRQAHGKEMELVAAITWSAARTYYADSVKGRFTISRDNAKNTVYLLMNSLKPEDTAVYYCAADHVSYQPSSRIFDYWGQGTQVTVSS” as the sequence, how does the “polyreactivity (PSR sort gate)” value read?
Its value is “low polyreactivity”.

With “QVQLVESGGGLVQAGGSLRLSCAASGITFPYYAMGWSRQAPGKERELVAAISSSGGSTYYADSVKGRFTISRDNAKNTVYLQLNSLKPEDTAVYYCAAQRYINYDYWGQGTQVTVSS” as the sequence, how does the “polyreactivity (PSR sort gate)” value read?
The value was “high polyreactivity”.

With “QVQLVESGGGLDQAGGSLRLSCAASGITFQSNAMGWYRQAPGKERELVAGISGSGARTYYADSVKGRFTISRDNAKNTVYLQMNSLKPEDTAVYYCAKKSSYRYGYWGQGTQVTVSS” as the sequence, how does the “polyreactivity (PSR sort gate)” value read?
Its value is “high polyreactivity”.

Which “polyreactivity (PSR sort gate)” value does the source give for “QVQLVESGRGLVQAGGSLRLSCAASGLILGVNVMGWYRQAPGKERELVAAISGGGRTYYADSVKGRFTISRDNAKNTVYLQMNSLKPDDTAVYYCATVRRRLSLTYDYWGQVTQVTVSS” here?
Its value is “high polyreactivity”.

With “QDQLVESGGGLVQAGGSLRLSCASSGSIITQYAMGWYRQAPGKERELVAAITSGGSPYADSVKGRFTISRDNAKNTVYLQMNSLKPEDTADYYCATPYSYRGVTFNYWGQGTQVTVSS” as the sequence, how does the “polyreactivity (PSR sort gate)” value read?
The value was “low polyreactivity”.

With “QVQLVESGGGLVQAGGSLRLSCAASGITFYKYVMGWYRQAPGKETELVAAISSVGSTYYADSVKGRFTISRDNAKNTVYLQMNSLKPEDTAVYYCAAKYWKCYHYGFGYWGQGTQVTVSS” as the sequence, how does the “polyreactivity (PSR sort gate)” value read?
Its value is “high polyreactivity”.

Which “polyreactivity (PSR sort gate)” value does the source give for “QVQLVESGGGLVQAGGSLRLSCAASGSTHNQNAMGWSRQAPGKETELVAAISSNGGTTYYADSVKWRFTISRDNAKNTVYLQMNSLKQEDTAVYYCAADWDRYVPRSYYRVSWYDYWGQGTQVTVSS” here?
Its value is “low polyreactivity”.

Which “polyreactivity (PSR sort gate)” value does the source give for “QVQLVESGGGLVQAGGSLRLSCAASGSNFRYYALGWYRQAPGKERELVAGNTGSTGRTYYADSVKGRFTISRDNAKNTVYLQMNRLKPEDTAVYYCATGIYRARTSSFRMGYWGQGTHVTVSS” here?
The value was “low polyreactivity”.
